Reference: patent US20170000857A1

Molecular target: ALMS1 (Alstrom syndrome protein 1) (human) (UniProt Q8TCU4)
Test: cell-based or functional assay

UniProt Q8TCU4, sequence (Q8TCU4 other isoform, or with tags, fused parts or gaps limits assumed): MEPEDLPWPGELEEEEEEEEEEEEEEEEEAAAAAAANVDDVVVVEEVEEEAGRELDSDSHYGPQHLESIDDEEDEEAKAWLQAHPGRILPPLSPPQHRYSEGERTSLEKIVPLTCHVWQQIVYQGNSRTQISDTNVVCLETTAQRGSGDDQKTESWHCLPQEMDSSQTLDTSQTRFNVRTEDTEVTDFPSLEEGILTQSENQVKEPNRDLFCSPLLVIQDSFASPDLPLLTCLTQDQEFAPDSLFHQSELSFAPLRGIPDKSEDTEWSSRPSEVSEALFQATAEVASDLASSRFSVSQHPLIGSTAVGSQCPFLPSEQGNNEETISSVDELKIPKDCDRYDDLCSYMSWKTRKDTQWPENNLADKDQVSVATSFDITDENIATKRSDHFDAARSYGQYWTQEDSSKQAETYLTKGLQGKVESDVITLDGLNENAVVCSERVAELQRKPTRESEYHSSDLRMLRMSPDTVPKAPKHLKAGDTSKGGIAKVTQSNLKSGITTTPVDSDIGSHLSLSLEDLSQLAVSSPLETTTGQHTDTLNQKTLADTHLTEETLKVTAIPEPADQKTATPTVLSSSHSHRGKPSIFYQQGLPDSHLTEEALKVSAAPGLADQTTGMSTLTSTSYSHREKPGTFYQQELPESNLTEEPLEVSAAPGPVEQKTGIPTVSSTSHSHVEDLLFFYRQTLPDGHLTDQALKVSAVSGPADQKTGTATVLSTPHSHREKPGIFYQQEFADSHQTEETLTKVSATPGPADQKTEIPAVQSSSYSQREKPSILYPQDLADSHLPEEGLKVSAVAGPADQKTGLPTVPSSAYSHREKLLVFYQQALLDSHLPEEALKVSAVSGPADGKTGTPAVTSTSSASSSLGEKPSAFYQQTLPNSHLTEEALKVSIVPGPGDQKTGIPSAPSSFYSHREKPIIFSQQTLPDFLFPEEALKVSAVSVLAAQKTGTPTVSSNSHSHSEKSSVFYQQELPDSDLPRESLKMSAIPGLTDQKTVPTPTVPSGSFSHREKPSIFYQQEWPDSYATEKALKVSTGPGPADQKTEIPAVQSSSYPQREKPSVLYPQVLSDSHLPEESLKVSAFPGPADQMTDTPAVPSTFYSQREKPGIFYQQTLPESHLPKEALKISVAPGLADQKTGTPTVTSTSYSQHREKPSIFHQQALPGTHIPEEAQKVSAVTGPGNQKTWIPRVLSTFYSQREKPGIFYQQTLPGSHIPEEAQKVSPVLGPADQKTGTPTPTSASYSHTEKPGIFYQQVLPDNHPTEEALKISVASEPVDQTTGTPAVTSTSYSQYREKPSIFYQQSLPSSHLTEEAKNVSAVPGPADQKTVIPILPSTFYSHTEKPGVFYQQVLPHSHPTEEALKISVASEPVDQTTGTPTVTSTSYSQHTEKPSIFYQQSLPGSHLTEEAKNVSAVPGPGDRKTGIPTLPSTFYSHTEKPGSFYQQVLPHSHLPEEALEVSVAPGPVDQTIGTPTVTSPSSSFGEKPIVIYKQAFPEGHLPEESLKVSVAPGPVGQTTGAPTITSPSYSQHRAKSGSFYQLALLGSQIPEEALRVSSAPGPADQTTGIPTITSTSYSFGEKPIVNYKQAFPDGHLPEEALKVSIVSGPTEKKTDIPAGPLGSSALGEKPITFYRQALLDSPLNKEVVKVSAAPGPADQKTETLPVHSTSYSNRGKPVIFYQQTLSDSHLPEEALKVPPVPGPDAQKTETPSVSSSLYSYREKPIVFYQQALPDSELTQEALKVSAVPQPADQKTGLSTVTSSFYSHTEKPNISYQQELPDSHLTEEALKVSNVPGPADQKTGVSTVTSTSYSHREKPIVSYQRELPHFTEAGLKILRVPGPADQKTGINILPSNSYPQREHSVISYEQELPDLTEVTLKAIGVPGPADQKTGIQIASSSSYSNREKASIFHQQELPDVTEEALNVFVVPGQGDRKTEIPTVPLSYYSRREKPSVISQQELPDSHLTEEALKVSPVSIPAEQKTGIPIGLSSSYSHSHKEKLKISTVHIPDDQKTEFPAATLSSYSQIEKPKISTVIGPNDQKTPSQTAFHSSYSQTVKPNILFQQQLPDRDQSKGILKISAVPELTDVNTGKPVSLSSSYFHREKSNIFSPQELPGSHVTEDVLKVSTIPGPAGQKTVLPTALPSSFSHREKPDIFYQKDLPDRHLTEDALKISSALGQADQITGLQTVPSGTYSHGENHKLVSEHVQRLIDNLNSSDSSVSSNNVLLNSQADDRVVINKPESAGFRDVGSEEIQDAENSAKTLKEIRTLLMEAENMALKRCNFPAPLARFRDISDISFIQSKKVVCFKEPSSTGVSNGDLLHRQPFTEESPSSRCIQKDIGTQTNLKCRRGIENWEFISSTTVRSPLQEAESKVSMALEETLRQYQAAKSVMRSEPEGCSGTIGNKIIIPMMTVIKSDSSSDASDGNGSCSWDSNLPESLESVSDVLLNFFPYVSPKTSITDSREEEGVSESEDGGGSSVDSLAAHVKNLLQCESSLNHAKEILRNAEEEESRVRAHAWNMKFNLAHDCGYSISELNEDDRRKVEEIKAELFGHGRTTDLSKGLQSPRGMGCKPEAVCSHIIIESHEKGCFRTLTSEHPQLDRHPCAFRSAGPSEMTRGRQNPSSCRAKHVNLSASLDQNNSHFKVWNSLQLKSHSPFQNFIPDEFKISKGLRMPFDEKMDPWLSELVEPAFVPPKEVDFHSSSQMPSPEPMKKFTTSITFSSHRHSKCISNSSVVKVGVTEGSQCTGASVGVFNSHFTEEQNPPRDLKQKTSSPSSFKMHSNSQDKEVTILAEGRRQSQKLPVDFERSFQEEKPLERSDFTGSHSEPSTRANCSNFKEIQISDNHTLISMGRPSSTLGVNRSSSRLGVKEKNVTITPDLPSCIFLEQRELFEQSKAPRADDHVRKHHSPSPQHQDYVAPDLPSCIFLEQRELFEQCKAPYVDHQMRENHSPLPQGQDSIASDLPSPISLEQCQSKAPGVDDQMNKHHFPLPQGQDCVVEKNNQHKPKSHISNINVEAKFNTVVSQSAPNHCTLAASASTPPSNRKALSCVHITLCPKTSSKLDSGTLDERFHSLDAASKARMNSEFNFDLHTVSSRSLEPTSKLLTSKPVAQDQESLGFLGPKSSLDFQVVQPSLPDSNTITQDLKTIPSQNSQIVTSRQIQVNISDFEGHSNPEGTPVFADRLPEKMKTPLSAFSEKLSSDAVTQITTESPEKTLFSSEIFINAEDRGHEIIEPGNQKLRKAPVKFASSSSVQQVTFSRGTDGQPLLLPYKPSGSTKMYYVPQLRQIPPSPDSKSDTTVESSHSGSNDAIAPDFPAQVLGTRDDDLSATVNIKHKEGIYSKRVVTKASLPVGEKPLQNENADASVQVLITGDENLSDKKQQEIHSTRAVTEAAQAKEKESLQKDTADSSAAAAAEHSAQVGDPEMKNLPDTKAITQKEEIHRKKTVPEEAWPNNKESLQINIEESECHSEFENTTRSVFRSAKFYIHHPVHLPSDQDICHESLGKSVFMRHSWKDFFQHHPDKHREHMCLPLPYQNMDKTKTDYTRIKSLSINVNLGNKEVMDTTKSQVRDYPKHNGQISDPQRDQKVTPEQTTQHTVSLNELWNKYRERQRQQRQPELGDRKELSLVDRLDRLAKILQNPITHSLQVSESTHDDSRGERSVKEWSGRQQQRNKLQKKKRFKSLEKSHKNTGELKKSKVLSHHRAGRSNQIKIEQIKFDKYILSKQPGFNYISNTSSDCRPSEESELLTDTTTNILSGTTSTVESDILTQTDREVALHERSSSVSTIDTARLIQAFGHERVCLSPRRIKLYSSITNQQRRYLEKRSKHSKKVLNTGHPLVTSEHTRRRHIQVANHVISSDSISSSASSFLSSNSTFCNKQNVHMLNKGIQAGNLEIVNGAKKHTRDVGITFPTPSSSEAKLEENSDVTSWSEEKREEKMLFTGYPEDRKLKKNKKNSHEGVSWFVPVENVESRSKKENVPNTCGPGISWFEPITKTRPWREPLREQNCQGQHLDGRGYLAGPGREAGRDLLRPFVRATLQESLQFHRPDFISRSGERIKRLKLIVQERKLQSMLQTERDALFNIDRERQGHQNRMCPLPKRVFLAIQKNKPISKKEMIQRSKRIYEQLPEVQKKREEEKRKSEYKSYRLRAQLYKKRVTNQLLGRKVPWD

2-NBDG absorption in mature adipocytes in absence of INS (times (vs control)): 3.5
Substance: min-αPKC-FLAG (ALMS1-interacting domain of human PKCα with N-terminal FLAG tag) (from UniProt P05696 336-672)
